Results on one substance are retold here after publication PMC3828348.

The test system of this data set is GST-KSRP. Kind of data set: competition. As to conditions: REMSA: 50 mM Tris-HCl pH 7.0, 150 mM NaCl, 0.25 mg/ml tRNA, 0.25 mg/ml BSA, 5% glycerol, 10 min 37°C; competition: 10 mM HEPES pH 7.4, 100 mM KCl, 5 mM MgCl2 …; scale: % HuD binding remaining at equimolar KSRP.

In turn, GAP-43 ARE RNA (pGAP/B transcript) had a binding signal of 50.
